Patent US20230312646A1 (published 2023)

Experiments:
[1] = biological target: P47 (P32 with proline replaced by octahydroindole-2-carboxylic acid, Oic); test: ITC, 25 C
[2] = biological target: P50 (hexapeptide with Oic and a C-terminal 3,4-dichlorinated phenylalanine); test: ITC, 25 C

B1: Pseudomonas aeruginosa sliding clamp (other)
chain: MHFTIQREALLKPLQLVAGVVERRQTLPVLSNVLLVVEGQQLSLTGTDLEVELVGRVVLEDAAEPGEITVPARKLMDICKSLPNDVLIDIRVEEQKLLVKAGRSRFTLSTLPANDFPTVEEGPGSLNFSIAQSKLRRLIDRTSFAMAQQDVRYYLNGMLLEVNGGTLRSVATDGHRLAMCSLDAQIPSQDRHQVIVPRKGILELARLLTEQDGEVGIVLGQHHIRATTGEFTFTSKLVDGKFPDYERVLPRGGDKLVVGDRQQLREAFSRTAILSNEKYRGIRLQLSNGLLKIQANNPEQEEAEEEVQVEYNGGNLEIGFNVSYLLDVLGVIGTEQVRFILSDSNSSALVHEADNDDSAYVVMPMRL
notes: also called ^PaSC; P. aeruginosa
- Kd [1]: 201 nM
- Kd [2]: 20 nM
